According to patent publication US11419921B2, “Methods of treating neurological disorders” (EnClear Therapies, Inc., priority 2018, dated 2022):

Test system: (GR)10
Assay: Cleavage of (GR)10 by enzymes in solution (PBS with CaCl2 and MgCl2), LC/MS of GR repeats
Assay type: biochemical
Conditions: for (GR)1 concentration / (GR)2 concentration / (GR)4 concentration / (GR)6 concentration / (GR)8 concentration / (GR)10 concentration: (GR)10 50 μM; for (GR)1 / (GR)2 / (GR)3 / (GR)4 / (GR)5 / (GR)6 / (GR)8 / (GR)10: PBS, normalized
Method in brief: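 (GR)10 at 50 μM final incubated with enzyme in PBS containing CaCl2 and MgCl2 (activators added as needed) at room temperature. Reactions quenched with TFA at 0, 5, 10, 30, 60 and 180 min. LC/MS quantified remaining GR repeats of each length.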

B1: Clostripain: sulfhydryl protease cleaving at the C-terminus of arginine residues; in Table 23 also immobilized on agarose resin (protein)
chain: NKNQKVTIMYYCDADNNLEGSLLNDIEEMKTGYKDSPNLNLIALVDRSPRYSSDEKVLGEDFSDTRLYKIEHNKANRLDGKNEFPEISTTSKYEANMGDPEVLKKFIDYCKSNYEADKYVLIMANHGGGAREKSNPRLNRAICWDDSNLDKNGEADCLYMGEISDHLTEKQSVDLLAFDACLMGTAEVAYQYRPGNGGFSADTLVASSPVVWGPGFKYDKIFDRIKAGGGTNNEDDLTLGGKEQNFDPATITNEQLGALFVEEQRDSTHANGRYDQHLSFYDLKKAESVKRAIDNLAVNLSNENKKSEIEKLRGSGIHTDLMHYFDEYSEGEWVEYPYFDVYDLCEKINKSENFSSKTKDLASNAMNKLNEMIVYSFGDPSNNFKEGKNGLSIFLPNGDKKYSTYYTSTKIPHWTMQSWYNSIDTVKYGLNPYGKLSWCKDGQDPEINKVGNWFELLDSWFDKTNDVTGGVNHYQW
(GR)1 concentration (enzyme 2.5 μg/mL, 0 min): BLQ
(GR)2 concentration (enzyme 2.5 μg/mL, 0 min): BLQ
(GR)4 concentration (enzyme 2.5 μg/mL, 0 min): BLQ
(GR)6 concentration (enzyme 2.5 μg/mL, 0 min): BLQ
(GR)8 concentration (enzyme 2.5 μg/mL, 0 min): 0.7 µM
(GR)10 concentration (enzyme 2.5 μg/mL, 0 min): 39.7 µM
(GR)1 concentration (enzyme 2.5 μg/mL, 5 min): 25.6 µM
(GR)2 concentration (enzyme 2.5 μg/mL, 5 min): 8.7 µM
(GR)4 concentration (enzyme 2.5 μg/mL, 5 min): 6.7 µM
(GR)6 concentration (enzyme 2.5 μg/mL, 5 min): 3.6 µM
(GR)8 concentration (enzyme 2.5 μg/mL, 5 min): 2.2 µM
(GR)10 concentration (enzyme 2.5 μg/mL, 5 min): 5.4 µM
(GR)1 concentration (enzyme 2.5 μg/mL, 10 min): 35.3 µM
(GR)2 concentration (enzyme 2.5 μg/mL, 10 min): 14.0 µM
(GR)4 concentration (enzyme 2.5 μg/mL, 10 min): 9.8 µM
(GR)6 concentration (enzyme 2.5 μg/mL, 10 min): 4.3 µM
(GR)8 concentration (enzyme 2.5 μg/mL, 10 min): 1.8 µM
(GR)10 concentration (enzyme 2.5 μg/mL, 10 min): 2.3 µM
(GR)1 concentration (enzyme 2.5 μg/mL, 30 min): 72.9 µM
(GR)2 concentration (enzyme 2.5 μg/mL, 30 min): 36.8 µM
(GR)4 concentration (enzyme 2.5 μg/mL, 30 min): 7.5 µM
(GR)6 concentration (enzyme 2.5 μg/mL, 30 min): 1.4 µM
(GR)8 concentration (enzyme 2.5 μg/mL, 30 min): BLQ
(GR)10 concentration (enzyme 2.5 μg/mL, 30 min): BLQ
(GR)1 concentration (enzyme 2.5 μg/mL, 60 min): 148.6 µM
(GR)2 concentration (enzyme 2.5 μg/mL, 60 min): 62.1 µM
(GR)4 concentration (enzyme 2.5 μg/mL, 60 min): 1.9 µM
(GR)6 concentration (enzyme 2.5 μg/mL, 60 min): BLQ
(GR)8 concentration (enzyme 2.5 μg/mL, 60 min): BLQ
(GR)10 concentration (enzyme 2.5 μg/mL, 60 min): BLQ
(GR)1 concentration (enzyme 2.5 μg/mL, 120 min): 325.0 µM
(GR)2 concentration (enzyme 2.5 μg/mL, 120 min): BLQ
(GR)4 concentration (enzyme 2.5 μg/mL, 120 min): BLQ
(GR)6 concentration (enzyme 2.5 μg/mL, 120 min): BLQ
(GR)8 concentration (enzyme 2.5 μg/mL, 120 min): BLQ
(GR)10 concentration (enzyme 2.5 μg/mL, 120 min): BLQ
(GR)1 concentration (enzyme 10 μg/mL, 0 min): BLQ
(GR)2 concentration (enzyme 10 μg/mL, 0 min): BLQ
(GR)4 concentration (enzyme 10 μg/mL, 0 min): BLQ
(GR)6 concentration (enzyme 10 μg/mL, 0 min): BLQ
(GR)8 concentration (enzyme 10 μg/mL, 0 min): 0.6 µM
(GR)10 concentration (enzyme 10 μg/mL, 0 min): 37.9 µM
(GR)1 concentration (enzyme 10 μg/mL, 5 min): 99.0 µM
(GR)2 concentration (enzyme 10 μg/mL, 5 min): 51.8 µM
(GR)4 concentration (enzyme 10 μg/mL, 5 min): 5.4 µM
(GR)6 concentration (enzyme 10 μg/mL, 5 min): 0.6 µM
(GR)8 concentration (enzyme 10 μg/mL, 5 min): BLQ
(GR)10 concentration (enzyme 10 μg/mL, 5 min): 0.8 µM
(GR)1 concentration (enzyme 10 μg/mL, 10 min): 145.9 µM
(GR)2 concentration (enzyme 10 μg/mL, 10 min): 62.2 µM
(GR)4 concentration (enzyme 10 μg/mL, 10 min): 1.8 µM
(GR)6 concentration (enzyme 10 μg/mL, 10 min): BLQ
(GR)8 concentration (enzyme 10 μg/mL, 10 min): BLQ
(GR)10 concentration (enzyme 10 μg/mL, 10 min): BLQ
(GR)1 concentration (enzyme 10 μg/mL, 30 min): 336.9 µM
(GR)2 concentration (enzyme 10 μg/mL, 30 min): BLQ
(GR)4 concentration (enzyme 10 μg/mL, 30 min): BLQ
(GR)6 concentration (enzyme 10 μg/mL, 30 min): BLQ
(GR)8 concentration (enzyme 10 μg/mL, 30 min): BLQ
(GR)10 concentration (enzyme 10 μg/mL, 30 min): BLQ
(GR)1 concentration (enzyme 10 μg/mL, 60 min): 340.3 µM
(GR)2 concentration (enzyme 10 μg/mL, 60 min): BLQ
(GR)4 concentration (enzyme 10 μg/mL, 60 min): BLQ
(GR)6 concentration (enzyme 10 μg/mL, 60 min): BLQ
(GR)8 concentration (enzyme 10 μg/mL, 60 min): BLQ
(GR)10 concentration (enzyme 10 μg/mL, 60 min): BLQ
(GR)1 concentration (enzyme 10 μg/mL, 120 min): 355.8 µM
(GR)2 concentration (enzyme 10 μg/mL, 120 min): BLQ
(GR)4 concentration (enzyme 10 μg/mL, 120 min): BLQ
(GR)6 concentration (enzyme 10 μg/mL, 120 min): BLQ
(GR)8 concentration (enzyme 10 μg/mL, 120 min): BLQ
(GR)10 concentration (enzyme 10 μg/mL, 120 min): BLQ
(GR)1 (in solution - 5 min reaction): 82.6 µM
(GR)2 (in solution - 5 min reaction): 106.2 µM
(GR)3 (in solution - 5 min reaction): 39.1 µM
(GR)4 (in solution - 5 min reaction): 28.6 µM
(GR)5 (in solution - 5 min reaction): 12.7 µM
(GR)6 (in solution - 5 min reaction): 8.4 µM
(GR)8 (in solution - 5 min reaction): 0.0 µM
(GR)10 (in solution - 5 min reaction): 12.4 µM
(GR)1 (in solution - 60 min reaction): 383.2 µM
(GR)2 (in solution - 60 min reaction): 0.0 µM
(GR)3 (in solution - 60 min reaction): 0.0 µM
(GR)4 (in solution - 60 min reaction): 0.0 µM
(GR)5 (in solution - 60 min reaction): 0.0 µM
(GR)6 (in solution - 60 min reaction): 0.0 µM
(GR)8 (in solution - 60 min reaction): 0.0 µM
(GR)10 (in solution - 60 min reaction): 0.0 µM
